Data from patent US20080268549A1, “THIOFLAVIN T METHOD FOR DETECTION OF AMYLOID POLYPEPTIDE FIBRIL AGGREGATION” (priority 2007, published 2008).
Entries after “also recorded” stand apart in the source; their conditions may differ.

Legend:
Aβ (1-40) = molecular target: T1, Aβ (1-40) (Homo sapiens, UniProt P05067); assay: Circular dichroism spectra of Aβ secondary structure
T1 construct: β-amyloid peptide (1-40) can be obtained from Biosource; purchased Biosource (Camarillo, Calif.)
Method: CD is routinely used to monitor changes in secondary structure (Wang et al., 2005). In order to verify that CLN does indeed cause a shift in secondary structure, a CD spectra of Aβ treated with CLN and control were taken at 24 and 48 h. For these experiments, a 10 μM solution of Aβ (1-40) (first solubilized in base as in previous examples) was prepared in 50 mM Tris buffer, pH 7.4, with and without 50 nM CLN and ThT. Circular dichroism (CD) spectra of the Aβ (1-40) peptide solutions were recorded using a Jasco J-715 CD spectropolarimeter at 25° C. using a bandwidth of 1.0 nm, a sensitivity of 0.5 nm and a recording speed of 50 nm/min. The results were plotted as ellipticity (mdeg) versus wavelength (nm).

β-amyloid peptide (1-40) = molecular target: T2, β-amyloid peptide (1-40) (Homo sapiens, UniProt P05067); assay: Thioflavin T fluorescence assay of Aβ fibril aggregation; format: biochemical; settings: FIG. 5
T2 construct: β-amyloid peptide (1-40) can be obtained from Biosource; purchased Biosource (Camarillo, Calif.)
Method: (1) Prepare a stock ThT solution (1 mg/ml; 3.14 mM) in distilled, deionized water, aliquot into small samples and store long term at −20° C. in the dark. Thaw frozen samples only once and discard the remainder. Add 1.6 μl of ThT solution to 1.0 ml of 50 mM Tris buffer, pH 7.4 to yield a final 5.0 μM ThT solution.
(2) β-amyloid peptide (1-40) can be obtained from Biosource (Camarillo, Calif.), CLN from ReGen Therapeutics Plc (London, UK) and Thioflavin T from Sigma (St. Louis, Mo.). Prepare a stock solution of β-amyloid (by dissolving in 10 mM NaOH (0.5 mg/ml) and stored at −70° C. until used. Aβ in base is stable for at least 3 weeks frozen. Add 5.0 μl (2.5 μg) of β-amyloid stock solution to 1.0 ml of ThT/Tris buffer solution. It is preferable to avoid any contact with metal when preparing a amyloid solution since metal can oxidize the peptide.
(3) Measure the fluorescence intensity of 1.0 ml of Aβ/ThT/Tris solution using an excitation wavelength of 440 nm and an emission wavelength of 482 nm. A control solution of Aβ/Tris solution, without ThT can be used as a control. The fluorescence intensity above the control is used as a measure of fibril content.
(4) If the assay is intended to measure the change in Aβ aggregation and used to quantitate the effect of test agents, prepare a second sample containing the drug or agent as in step 2. Preincubate the samples for the appropriate length of time (usually days to weeks) required to yield a change in fluorescence intensity.
Samples of Aβ in base were prepared as described in Example 1. ThT in Tris buffer was then added to the sample together with CLN at a concentration range of 2.5-10 nM and was preincubated for either 1 or 2 days and the fluorescence intensity measured following the above procedure. […] After a 2-day treatment with 10 nM CLN, approximately 50% of the Aβ fibrils are dissolved.

T2 sequence (P05067 672-711 limits assumed): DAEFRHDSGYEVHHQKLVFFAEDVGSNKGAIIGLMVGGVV
T1 sequence (P05067 672-711 limits assumed): as above

| Molecule | effect of ThT on conformation of CLN treated Aβ samples by CD spectra (Aβ (1-40); 10 μM Aβ (1-40) with 50 nM CLN and ThT, FIG. 6B) | Aβ fibrils dissolved (β-amyloid peptide (1-40); 10 nM CLN, 2-day treatment) | decrease in Aβ aggregation (ThT fluorescence), maximum (β-amyloid peptide (1-40); 10 nM CLN, at 2 days) [%] | effect on Aβ aggregation (ThT fluorescence) (β-amyloid peptide (1-40); CLN 2.5-10 nM, preincubated 1 or 2 days) | effect on secondary structure (conformation) of Aβ by CD spectra (Aβ (1-40); 10 μM Aβ (1-40), 50 nM CLN, 50 mM Tris pH 7.4, 24 and 48 h, FIG. 6A) |
| --- | --- | --- | --- | --- | --- |
| Cc1ccc2c(c1)sc(-c1ccc(N(C)C)cc1)[n+]2C.[Cl-] [ThT, Thioflavin T] | did not have an effect |  |  |  |  |
| colostrinin [CLN] |  | approximately 50% | 40 | dose-dependent decrease | shift from β-sheet to α-helix; also recorded: shifted to a random-coil/α-helical rich conformation |
